Results taken from patent US20060182721A1.

Biological target: Notch on human peripheral blood CD14-positive cells (human)
Test: cell-based or functional assay

Delta-1 construct composed of the human Delta-1 extracellular domain and 6 myc proteins (from UniProt O00548 18-545) (ligand)
level of HES-1 gene expression (real-time RT-PCR, ratio to GAPDH) in CD14-positive cells after 24 hours of culture: 8 times
